Measured values from the supplement of paper PMC11316812.
± gives the standard deviation of the averaged measurements.

Tests used:
[1] = system: MCF7; assay: percentage of EdU-negative (G0-arrested) nuclei per well, 72 h; higher = more G0 arrest; settings: reference: sequence is the full UniProt precursor, the tested protein was the secreted form or ectodomain
[2] = system: hTERT-HMEC; assay: as above; settings: reference: sequence is the full UniProt precursor, the tested protein was the secreted form or ectodomain
[3] = protein concentration 0.01425 µM
[4] = protein concentration 0.1425 µM
[5] = protein concentration 0.0357143 µM
[6] = protein concentration 0.357143 µM
[7] = protein concentration 0.0225 µM
[8] = protein concentration 0.02425 µM
[9] = protein concentration 0.2425 µM
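Also: secreted proteins added to cultured cells, EdU pulse at the end, nuclei found by Hoechst imaging, EdU status from nuclear versus surrounding ring intensity ratio, PBS as neutral control.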

MGLQTTKWPSHGAFFLKSWLIISLGLYSQVSKLLACPSVCRCDRNFVYCNERSLTSVPLGIPEGVTVLYLHNNQINNAGFPAELHNVQSVHTVYLYGNQLDEFPMNLPKNVRVLHLQENNIQTISRAALAQLLKLEELHLDDNSISTVGVEDGAFREAISLKLLFLSKNHLSSVPVGLPVDLQELRVDENRIAVISDMAFQNLTSLERLIVDGNLLTNKGIAEGTFSHLTKLKEFSIVRNSLSHPPPDLPGTHLIRLYLQDNQINHIPLTAFSNLRKLERLDISNNQLRMLTQGVFDNLSNLKQLTARNNPWFCDCSIKWVTEWLKYIPSSLNVRGFMCQGPEQVRGMAVRELNMNLLSCPTTTPGLPLFTPAPSTASPTTQPPTLSIPNPSRSYTPPTPTTSKLPTIPDWDGRERVTPPISERIQLSIHFVNDTSIQVSWLSLFTVMAYKLTWVKMGHSLVGGIVQERIVSGEKQHLSLVNLEPRSTYRICLVPLDAFNYRAVEDTICSEATTHASYLNNGSNTASSHEQTTSHSMGSPFLLAGLIGGAVIFVLVVLLSVFCWHMHKKGRYTSQKWKYNRGRRKDDYCEAGTKKDNSILEMTETSFQIVSLNNDQLLKGDFRLQPIYTPNGGINYTDCHIPNNMRYCNSSVPDLEHCHT
percentage of EdU-negative [1, 3]: 22.9 ± 1.9%
percentage of EdU-negative [1, 4]: 27 ± 0.45%
percentage of EdU-negative [2, 3]: 6.49 ± 1.2%
percentage of EdU-negative [2, 4]: 7.12 ± 0.37%

MVPKLFTSQICLLLLLGLLAVEGSLHVKPPQFTWAQWFETQHINMTSQQCTNAMQVINNYQRRCKNQNTFLLTTFANVVNVCGNPNMTCPSNKTRKNCHHSGSQVPLIHCNLTTPSPQNISNCRYAQTPANMFYIVACDNRDQRRDPPQYPVVPVHLDRII
percentage of EdU-negative [1, 5]: 24.9 ± 1.8%
percentage of EdU-negative [1, 6]: 27 ± 0.65%
percentage of EdU-negative [2, 5]: 4.435 ± 0.01%
percentage of EdU-negative [2, 6]: 5.25 ± 0.32%

MPSLLVLTFSPCVLLGWALLAGGTGGGGVGGGGGGAGIGGGRQEREALPPQKIEVLVLLPQDDSYLFSLTRVRPAIEYALRSVEGNGTGRRLLPPGTRFQVAYEDSDCGNRALFSLVDRVAAARGAKPDLILGPVCEYAAAPVARLASHWDLPMLSAGALAAGFQHKDSEYSHLTRVAPAYAKMGEMMLALFRHHHWSRAALVYSDDKLERNCYFTLEGVHEVFQEEGLHTSIYSFDETKDLDLEDIVRNIQASERVVIMCASSDTIRSIMLVAHRHGMTSGDYAFFNIELFNSSSYGDGSWKRGDKHDFEAKQAYSSLQTVTLLRTVKPEFEKFSMEVKSSVEKQGLNMEDYVNMFVEGFHDAILLYVLALHEVLRAGYSKKDGGKIIQQTWNRTFEGIAGQVSIDANGDRYGDFSVIAMTDVEAGTQEVIGDYFGKEGRFEMRPNVKYPWGPLKLRIDENRIVEHTNSSPCKSSGGLEESAVTGIVVGALLGAGLLMAFYFFRKKYRITIERRTQQEESNLGKHRELREDSIRSHFSVA
percentage of EdU-negative [1, 7]: 24.88 ± 0.14%
percentage of EdU-negative ([1]; protein concentration 0.225 µM): 24.5 ± 1%
percentage of EdU-negative [2, 7]: 4.9 ± 0.22%
percentage of EdU-negative ([2]; protein concentration 0.225 µM): 6.51 ± 0.27%

MEPLRLLILLFVTELSGAHNTTVFQGVAGQSLQVSCPYDSMKHWGRRKAWCRQLGEKGPCQRVVSTHNLWLLSFLRRWNGSTAITDDTLGGTLTITLRNLQPHDAGLYQCQSLHGSEADTLRKVLVEVLADPLDHRDAGDLWFPGESESFEDAHVEHSISRSLLEGEIPFPPTSILLLLACIFLIKILAASALWAAAWHGQKPGTHPPSELDCGHDPGYQLQTLPGLRDT [Q9NZC2]
percentage of EdU-negative [1, 7]: 23.6 ± 1.7%
percentage of EdU-negative ([1]; protein concentration 0.225 µM): 29.3 ± 2.9%
percentage of EdU-negative [2, 7]: 5.63 ± 0.64%
percentage of EdU-negative ([2]; protein concentration 0.225 µM): 7.25 ± 1.5%

MKTLAGLVLGLVIFDAAVTAPTLESINYDSETYDATLEDLDNLYNYENIPVDKVEIEIATVMPSGNRELLTPPPQPEKAQEEEEEEESTPRLIDGSSPQEPEFTGVLGPHTNEDFPTCLLCTCISTTVYCDDHELDAIPPLPKNTAYFYSRFNRIKKINKNDFASLSDLKRIDLTSNLISEIDEDAFRKLPQLRELVLRDNKIRQLPELPTTLTFIDISNNRLGRKGIKQEAFKDMYDLHHLYLTDNNLDHIPLPLPENLRALHLQNNNILEMHEDTFCNVKNLTYIRKALEDIRLDGNPINLSKTPQAYMCLPRLPVGSLV
percentage of EdU-negative [1, 8]: 23.5 ± 1%
percentage of EdU-negative [1, 9]: 26.2 ± 2.6%
percentage of EdU-negative [2, 8]: 4.4 ± 0.046%
percentage of EdU-negative [2, 9]: 6.32 ± 0.2%

MRLLPLLRTVLWAAFLGSPLRGGSSLRHVVYWNSSNPRLLRGDAVVELGLNDYLDIVCPHYEGPGPPEGPETFALYMVDWPGYESCQAEGPRAYKRWVCSLPFGHVQFSEKIQRFTPFSLGFEFLPGETYYYISVPTPESSGQCLRLQVSVCCKERKSESAHPVGSPGESGTSGWRGGDTPSPLCLLLLLLLLILRLLRIL
percentage of EdU-negative [1, 7]: 27.2 ± 2.5%
percentage of EdU-negative ([1]; protein concentration 0.225 µM): 25.7 ± 0.36%
percentage of EdU-negative [2, 7]: 5.7 ± 0.081%
percentage of EdU-negative ([2]; protein concentration 0.225 µM): 8.57 ± 0.56%

MNNLLCCALVFLDISIKWTTQETFPPKYLHYDEETSHQLLCDKCPPGTYLKQHCTAKWKTVCAPCPDHYYTDSWHTSDECLYCSPVCKELQYVKQECNRTHNRVCECKEGRYLEIEFCLKHRSCPPGFGVVQAGTPERNTVCKRCPDGFFSNETSSKAPCRKHTNCSVFGLLLTQKGNATHDNICSGNSESTQKCGIDVTLCEEAFFRFAVPTKFTPNWLSVLVDNLPGTKVNAESVERIKRQHSSQEQTFQLLKLWKHQNKDQDIVKKIIQDIDLCENSVQRHIGHANLTFEQLRSLMESLPGKKVGAEDIEKTIKACKPSDQILKLLSLWRIKNGDQDTLKGLMHALKHSKTYHFPKTVTQSLKKTIRFLHSFTMYKLYQKLFLEMIGNQVQSVKISCL
percentage of EdU-negative ([1]; protein concentration 0.034 µM): 22.2 ± 1.3%
percentage of EdU-negative ([1]; protein concentration 0.34 µM): 29.5 ± 1%
percentage of EdU-negative ([2]; protein concentration 0.034 µM): 4.98 ± 0.78%
percentage of EdU-negative ([2]; protein concentration 0.34 µM): 8.17 ± 0.14%
